This note sets out measurements from patent publication US20160152728A1 (AFFEMED, published 2016).

In experiment [1] the target is T1, wild type EGFR expressed on cells (CHO^EGFR, F98^EGFR) (human, UniProt P00533 25-1210).
T1 construct: whole, on cells; also called native EGFR; EGFRwt
Briefly: flow cytometry on F98^EGFR cells; scFv detected with anti-His followed by FITC-conj. goat anti-mouse IgG.
Experimental: (§1) After a second washing cycle, the cells were incubated with 0.1 mL of 15 μg/mL FITC-conjugated goat anti-mouse IgG antibodies under the same conditions as before. As a control, cells were incubated with the anti-His IgG 13/45/31 followed by the FITC-conjugated goat anti-mouse IgG antibodies without scFvs. The cells were then washed again and resuspended in 0.2 mL of FACS buffer containing 2 μg/mL propidium iodide in order to exclude dead cells. The fluorescence of 1×10⁴ living cells was measured using a Beckman-Coulter FC500 MPL flow cytometer using the MXP software (Beckman-Coulter, Krefeld, Germany) or a Millipore Guava EasyCyte flow cytometer using the Incyte software (Merck Millipore, Schwalbach, Germany). Mean fluorescence intensities of the cell samples were calculated using CXP software (Beckman-Coulter, Krefeld, Germany) or Incyte software (Merck Millipore, Schwalbach, Germany).
(§2) In case of analysis with Beckman-Coulter FC500 MPL flow cytometer 0.5×10⁶ cells/staining and in case of Millipore Guava EasyCyte flow cytometer only 0.25×10⁶ cells/staining were used.

Experiment [2] has as its target T2, EGFRvIII expressed on cells (CHO^EGFRvIII, F98^EGFRvIII) (UniProt P00533 25-1210).
T2 construct: whole, on cells; the vIII deletion must be applied; also called deletion mutant EGFRvIII
Kind of experiment: flow cytometry on F98^EGFRvIII cells; scFv detected with anti-His followed by FITC-conj. goat anti-mouse IgG, mean fluorescence intensity.
Experimental: as §1, §2

The target of experiment [3] is T2, EGFRvIII expressed on cells …. Kind of experiment: flow cytometry on CHO^EGFRvIII cells; scFv detected with anti-His followed by FITC-conj. goat anti-mouse IgG, mean fluorescence intensity.
Experimental: as §1, §2

B1: Li3G30 scFv (parental) (scFv, V domains shown)
VH: EVQLVQSGAEVKKPGESLKISCKGSGYSFTSYWIGWVRQMPGKGLEWMGIIYPGDSDTRYSPSFQGQVTISADKSISTAYLQWSSLKASDTAMYYCARLGSSWTNDAFDIWGQGTMVTVSS
VL: SYELTQPPSVSVSPGQTARITCSGDALPKQYAYWYQQKPGQAPVLVIYKDSERPSGIPERFSGSSSGTTVTLTISGVQAEDEADYYCQSADSSGTPLIVFGTGTKLTVL
notes: One-chain scFv, His-tagged; also called parental scFv; starting clone Li3G30
Turning to B1, in experiment [1], the binding result is “no binding (tested: about 3300 nM)”. Further, the “EC50 (read off the curve)” value in experiment [2] is approximately 6 nM; in experiment [3] it was approximately 5 nM.
